# Data from EP4786492A1.
# Numbering of substitutions follows the chain as printed.
# B1: Hab008L1H2a-hFc (scFv, part only; not given: VL-VH linker and human IgG1 Fc, V domains shown, not shown: another chain or arm of the molecule; a dimerising Fc or GST; small tags and cut ends)
# VL: DIQMTQSPSSLSASVGDRVTITCKASQNVGTAVAWYQQKPGKSPKLLIFSASIRYTGVPSRFSGSGSGTDFTLTISSLQPEDFATYYCQQYSSSPYTFGGGTKVEIK
# VH: EVQLVQSGAEVKKPGASVKVSCKASGYTFTDYYMNWVRQAPGQRLEWMGIINPYNSGTSYNQKFRGRVTLTVDKSASTAYMELSSLRSEDTAVYYCSRYDYDYDVEGAMDYWGQGTTVTVSS
# B2: Hab008L3H2a-hFc (scFv, part only; not given: VL-VH linker and human IgG1 Fc, V domains shown, not shown: another chain or arm of the molecule; a dimerising Fc or GST; small tags and cut ends)
# VL: DIVMTQSPDSLAVSLGERATINCKASQNVGTAVAWYQQKPGQSPKLLIFSASIRYTGVPDRFSGSGSGTDFTLTISSLQAEDVAVYYCQQYSSSPYTFGGGTKVEIK
# VH: B1 VH
# B3: Hab008L1H5-hFc (scFv, part only; not given: VL-VH linker and human IgG1 Fc, V domains shown, not shown: another chain or arm of the molecule; a dimerising Fc or GST; small tags and cut ends)
# VL: B1 VL
# VH: B1 VH with Q39R, S56G, L70I
# What was measured:
# [1] = molecular target: human DLL3 protein expressed on CHO-K1 recombinant cells (human DLL3 extracellular segment fused to EpCAM transmembrane and intracellular regions) (human) (UniProt Q9NYJ7); experiment: FACS, CHO-K1 hDLL3 cells, 0.0064 nM antibody
# [2] = molecular target: DLL3 endogenously expressed on NCI-H82 cells (UniProt Q9NYJ7); experiment: FACS on NCI-H82 cells; antibody 100 nM
# [3] = molecular target: DLL3 endogenously expressed on NCI-H82 cells (UniProt Q9NYJ7); experiment: FACS on NCI-H82 cells; antibody 0.16 nM
# [4] = molecular target: human delta-like ligand 3 (DLL3) on SHP77 cells (human) (UniProt Q9NYJ7); experiment: FACS on SHP77 cells
# [5] = molecular target: human DLL1 protein (Acro, Cat. No. DL1-H52H8) (human) (UniProt O00548); experiment: ELISA, coated hDLL1; maximum over 0.1, 1, 10, 100 nM antibody
# [6] = molecular target: monkey DLL3 on CHO-K1-cyno DLL3 cells (cynomolgus monkey); experiment: FACS, CHO-K1-cyno DLL3 cells, 0.16 nM antibody
# [7] = molecular target: human DLL4 protein (Acro, Cat. No. DL4-H5227) (human) (UniProt Q9NR61); experiment: ELISA, coated hDLL4; maximum over 0.1, 1, 10, 100 nM antibody
# [8] = molecular target: monkey DLL3 on CHO-K1-cyno DLL3 cells (cynomolgus monkey); experiment: FACS, CHO-K1-cyno DLL3 cells, 0.8 nM antibody
# [9] = molecular target: monkey DLL3 on CHO-K1-cyno DLL3 cells (cynomolgus monkey); experiment: FACS, CHO-K1-cyno DLL3 cells, 0.0064 nM antibody
# [10] = molecular target: human DLL3 protein (extracellular segment, His tag) (human) (UniProt Q9NYJ7); experiment: SPR (Biacore 8K), antibody captured on Protein A chip, DLL3 antigen in solution, 1:1 Langmuir fit
# [11] = molecular target: human DLL3 protein expressed on CHO-K1 recombinant cells (human DLL3 extracellular segment fused to EpCAM transmembrane and intracellular regions) (human) (UniProt Q9NYJ7); experiment: FACS, CHO-K1 hDLL3 cells, 4 nM antibody
# [12] = molecular target: human DLL3 protein expressed on CHO-K1 recombinant cells (human DLL3 extracellular segment fused to EpCAM transmembrane and intracellular regions) (human) (UniProt Q9NYJ7); experiment: FACS, CHO-K1 hDLL3 cells, 0.00128 nM antibody
# [13] = molecular target: monkey DLL3 on CHO-K1-cyno DLL3 cells (cynomolgus monkey); experiment: FACS, CHO-K1-cyno DLL3 cells, 0.00128 nM antibody
# [14] = molecular target: human DLL3 protein expressed on CHO-K1 recombinant cells (human DLL3 extracellular segment fused to EpCAM transmembrane and intracellular regions) (human) (UniProt Q9NYJ7); experiment: FACS, CHO-K1 hDLL3 cells, 0.032 nM antibody
# [15] = molecular target: DLL3 endogenously expressed on NCI-H82 cells (UniProt Q9NYJ7); experiment: FACS on NCI-H82 cells; antibody 0.0064 nM
# [16] = molecular target: human DLL3 protein expressed on CHO-K1 recombinant cells (human DLL3 extracellular segment fused to EpCAM transmembrane and intracellular regions) (human) (UniProt Q9NYJ7); experiment: FACS, CHO-K1 hDLL3 cells, 0.16 nM antibody
# [17] = molecular target: DLL3 endogenously expressed on NCI-H82 cells (UniProt Q9NYJ7); experiment: FACS on NCI-H82 cells; antibody 4 nM
# [18] = molecular target: monkey DLL3 on CHO-K1-cyno DLL3 cells (cynomolgus monkey); experiment: FACS, CHO-K1-cyno DLL3 cells, 4 nM antibody
# [19] = molecular target: DLL3 endogenously expressed on NCI-H82 cells (UniProt Q9NYJ7); experiment: FACS on NCI-H82 cells; antibody 0.8 nM
# [20] = molecular target: DLL3 endogenously expressed on NCI-H82 cells (UniProt Q9NYJ7); experiment: FACS on NCI-H82 cells; antibody 20 nM
# [21] = molecular target: DLL3 endogenously expressed on NCI-H82 cells (UniProt Q9NYJ7); experiment: FACS on NCI-H82 cells; antibody 0.032 nM
# [22] = molecular target: human DLL3 protein expressed on CHO-K1 recombinant cells (human DLL3 extracellular segment fused to EpCAM transmembrane and intracellular regions) (human) (UniProt Q9NYJ7); experiment: FACS, CHO-K1 hDLL3 cells, 0.8 nM antibody
# [23] = molecular target: monkey DLL3 on CHO-K1-cyno DLL3 cells (cynomolgus monkey); experiment: FACS, CHO-K1-cyno DLL3 cells, 20 nM antibody
# [24] = molecular target: human DLL3 protein expressed on CHO-K1 recombinant cells (human DLL3 extracellular segment fused to EpCAM transmembrane and intracellular regions) (human) (UniProt Q9NYJ7); experiment: FACS, CHO-K1 hDLL3 cells, 20 nM antibody
# [25] = molecular target: DLL3 endogenously expressed on NCI-H82 cells (UniProt Q9NYJ7); experiment: FACS on NCI-H82 cells; antibody 0.00128 nM
# [26] = molecular target: monkey DLL3 on CHO-K1-cyno DLL3 cells (cynomolgus monkey); experiment: FACS, CHO-K1-cyno DLL3 cells, 0.032 nM antibody
# [27] = molecular target: human DLL3 protein expressed on CHO-K1 recombinant cells (human DLL3 extracellular segment fused to EpCAM transmembrane and intracellular regions) (human) (UniProt Q9NYJ7); experiment: FACS, CHO-K1 hDLL3 cells, 100 nM antibody
# [28] = molecular target: monkey DLL3 on CHO-K1-cyno DLL3 cells (cynomolgus monkey); experiment: FACS, CHO-K1-cyno DLL3 cells, 100 nM antibody
# Chain of monkey DLL3 on CHO-K1-cyno DLL3 cells (cynomolgus monkey) (chain, as listed by the source limits assumed): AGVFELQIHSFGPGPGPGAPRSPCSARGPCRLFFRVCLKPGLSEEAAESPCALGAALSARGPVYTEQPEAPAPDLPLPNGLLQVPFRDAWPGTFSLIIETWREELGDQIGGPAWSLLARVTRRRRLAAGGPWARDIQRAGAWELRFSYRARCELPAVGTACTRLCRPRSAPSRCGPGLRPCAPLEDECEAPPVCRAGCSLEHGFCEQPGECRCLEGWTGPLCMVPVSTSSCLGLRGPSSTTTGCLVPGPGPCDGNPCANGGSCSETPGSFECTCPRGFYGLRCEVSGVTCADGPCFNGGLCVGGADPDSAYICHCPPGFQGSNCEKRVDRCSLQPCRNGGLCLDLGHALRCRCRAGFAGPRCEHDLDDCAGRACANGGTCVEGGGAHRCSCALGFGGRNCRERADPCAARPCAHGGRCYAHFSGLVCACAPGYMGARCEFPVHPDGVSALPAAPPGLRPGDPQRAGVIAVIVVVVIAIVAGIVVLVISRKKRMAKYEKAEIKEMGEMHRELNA
# Chain of human DLL3 protein expressed on CHO-K1 recombinant cells (human DLL3 extracellular segment fused to EpCAM transmembrane and intracellular regions) (human) (Q9NYJ7 other isoform, or with tags, fused parts or gaps limits assumed): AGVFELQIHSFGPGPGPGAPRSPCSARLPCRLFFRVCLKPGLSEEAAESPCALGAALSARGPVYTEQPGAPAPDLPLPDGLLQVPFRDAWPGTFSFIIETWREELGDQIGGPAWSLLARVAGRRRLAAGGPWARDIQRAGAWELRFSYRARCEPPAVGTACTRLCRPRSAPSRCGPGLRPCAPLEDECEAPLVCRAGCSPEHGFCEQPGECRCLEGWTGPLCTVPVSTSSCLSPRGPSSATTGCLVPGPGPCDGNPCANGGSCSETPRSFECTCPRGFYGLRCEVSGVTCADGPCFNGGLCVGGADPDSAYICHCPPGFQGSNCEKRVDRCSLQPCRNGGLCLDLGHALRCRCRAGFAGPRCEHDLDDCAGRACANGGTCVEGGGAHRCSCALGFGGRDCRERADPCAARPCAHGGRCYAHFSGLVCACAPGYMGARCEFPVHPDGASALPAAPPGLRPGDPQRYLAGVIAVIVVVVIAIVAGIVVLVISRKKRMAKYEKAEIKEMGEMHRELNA
# Chain of human DLL3 protein (extracellular segment, His tag) (human) (Q9NYJ7 27-492): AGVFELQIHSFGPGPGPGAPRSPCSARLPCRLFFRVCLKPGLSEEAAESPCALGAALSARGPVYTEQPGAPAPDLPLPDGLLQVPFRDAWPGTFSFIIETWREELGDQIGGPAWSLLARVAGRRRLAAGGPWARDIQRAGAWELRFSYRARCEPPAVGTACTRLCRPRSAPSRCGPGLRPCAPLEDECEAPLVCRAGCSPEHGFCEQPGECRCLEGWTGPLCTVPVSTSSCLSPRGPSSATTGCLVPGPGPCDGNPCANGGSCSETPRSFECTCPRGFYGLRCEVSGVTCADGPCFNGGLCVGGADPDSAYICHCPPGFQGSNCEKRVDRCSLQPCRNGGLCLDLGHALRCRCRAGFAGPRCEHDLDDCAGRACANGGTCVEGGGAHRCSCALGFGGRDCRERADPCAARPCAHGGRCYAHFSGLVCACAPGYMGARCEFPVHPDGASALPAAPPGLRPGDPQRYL
# Chain of human delta-like ligand 3 (DLL3) on SHP77 cells (human) (Q9NYJ7 27-618, stated change not applied): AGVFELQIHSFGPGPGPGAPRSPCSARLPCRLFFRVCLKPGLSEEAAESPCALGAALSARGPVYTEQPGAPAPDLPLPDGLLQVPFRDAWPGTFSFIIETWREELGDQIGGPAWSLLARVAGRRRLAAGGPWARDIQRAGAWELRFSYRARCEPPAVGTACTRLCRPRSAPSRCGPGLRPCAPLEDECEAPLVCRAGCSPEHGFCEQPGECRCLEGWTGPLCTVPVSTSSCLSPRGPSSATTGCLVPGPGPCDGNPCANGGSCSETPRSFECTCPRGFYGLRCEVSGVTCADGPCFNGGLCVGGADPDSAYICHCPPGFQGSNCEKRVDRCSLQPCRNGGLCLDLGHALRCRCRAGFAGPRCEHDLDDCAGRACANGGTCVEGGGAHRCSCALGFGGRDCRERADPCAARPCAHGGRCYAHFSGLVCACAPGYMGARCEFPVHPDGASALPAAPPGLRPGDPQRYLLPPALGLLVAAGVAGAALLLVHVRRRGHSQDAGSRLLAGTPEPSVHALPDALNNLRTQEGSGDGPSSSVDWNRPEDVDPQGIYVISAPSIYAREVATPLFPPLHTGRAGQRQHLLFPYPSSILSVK
# Chain of DLL3 endogenously expressed on NCI-H82 cells (Q9NYJ7 27-618): as the sequence (Q9NYJ7 27-618, stated change not applied) above
# Chain of human DLL4 protein (Acro, Cat. No. DL4-H5227) (human) (Q9NR61 27-524 limits assumed): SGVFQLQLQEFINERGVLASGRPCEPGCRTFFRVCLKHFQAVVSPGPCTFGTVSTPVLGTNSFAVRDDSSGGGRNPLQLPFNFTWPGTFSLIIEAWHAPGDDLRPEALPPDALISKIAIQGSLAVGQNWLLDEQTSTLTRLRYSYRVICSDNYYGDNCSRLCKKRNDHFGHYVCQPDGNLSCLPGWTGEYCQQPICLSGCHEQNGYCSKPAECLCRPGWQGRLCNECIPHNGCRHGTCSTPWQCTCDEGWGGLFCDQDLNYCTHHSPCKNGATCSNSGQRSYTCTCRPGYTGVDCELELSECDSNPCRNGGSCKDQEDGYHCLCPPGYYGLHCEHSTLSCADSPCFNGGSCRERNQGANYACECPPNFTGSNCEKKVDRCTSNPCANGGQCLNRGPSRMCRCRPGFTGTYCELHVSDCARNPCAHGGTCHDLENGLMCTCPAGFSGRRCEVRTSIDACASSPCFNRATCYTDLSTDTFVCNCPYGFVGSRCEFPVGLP
# Chain of human DLL1 protein (Acro, Cat. No. DL1-H52H8) (human) (O00548 18-540 limits assumed): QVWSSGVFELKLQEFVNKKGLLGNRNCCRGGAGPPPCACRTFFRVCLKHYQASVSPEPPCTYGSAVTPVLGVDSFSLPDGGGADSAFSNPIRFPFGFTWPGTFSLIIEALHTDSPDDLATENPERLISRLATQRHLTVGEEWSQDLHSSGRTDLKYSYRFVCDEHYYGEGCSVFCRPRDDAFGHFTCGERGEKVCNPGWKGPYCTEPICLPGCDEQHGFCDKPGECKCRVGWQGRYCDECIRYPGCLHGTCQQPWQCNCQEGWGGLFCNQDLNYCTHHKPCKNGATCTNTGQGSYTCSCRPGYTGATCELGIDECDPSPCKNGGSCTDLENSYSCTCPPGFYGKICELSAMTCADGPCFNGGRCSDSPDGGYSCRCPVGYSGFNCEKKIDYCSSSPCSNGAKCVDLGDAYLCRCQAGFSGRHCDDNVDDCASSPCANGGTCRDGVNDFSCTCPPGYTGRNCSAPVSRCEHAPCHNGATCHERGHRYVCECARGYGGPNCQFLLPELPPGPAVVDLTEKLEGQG
binder,measurement,setting,value
B1,MFI,[1],148 MFI
same,MFI,[2],617
same,MFI,[3],194
same,MFI at 0.00128 nM,[4],119 MFI
same,MFI at 0.0064 nM,[4],121 MFI
same,MFI at 0.032 nM,[4],126 MFI
same,MFI at 0.16 nM,[4],144 MFI
same,MFI at 0.8 nM,[4],187 MFI
same,MFI at 4 nM,[4],297 MFI
same,MFI at 20 nM,[4],532 MFI
same,MFI at 100 nM,[4],758 MFI
same,Emax of OD450 nm binding value,[5],0.06 OD450 nm
same,MFI,[6],1540 MFI
same,Emax of OD450 nm binding value,[7],0.07 OD450 nm
same,MFI,[8],7010 MFI
same,MFI,[9],231 MFI
same,Kd,[10],0.535 nM
same,koff,[10],0.000324 s⁻¹
same,kon,[10],606000 M⁻¹ s⁻¹
same,MFI,[11],7440 MFI
same,MFI,[12],109 MFI
same,MFI,[13],129 MFI
same,MFI,[14],316 MFI
same,MFI,[15],106
same,MFI,[16],866 MFI
same,MFI,[17],440
same,MFI,[18],17600 MFI
same,MFI,[19],312
same,MFI,[20],503
same,MFI,[21],134
same,MFI,[22],3700 MFI
same,MFI,[23],19500 MFI
same,MFI,[24],7660 MFI
same,MFI,[25],93
same,MFI,[26],511 MFI
same,MFI,[27],7690 MFI
same,MFI,[28],18600 MFI
B2,MFI,[1],126 MFI
same,MFI,[2],550
same,MFI,[3],97
same,MFI at 0.00128 nM,[4],117 MFI
same,MFI at 0.0064 nM,[4],117 MFI
same,MFI at 0.032 nM,[4],121 MFI
same,MFI at 0.16 nM,[4],129 MFI
same,MFI at 0.8 nM,[4],168 MFI
same,MFI at 4 nM,[4],255 MFI
same,MFI at 20 nM,[4],426 MFI
same,MFI at 100 nM,[4],613 MFI
same,Emax of OD450 nm binding value,[5],0.04 OD450 nm
same,MFI,[6],928 MFI
same,Emax of OD450 nm binding value,[7],0.04 OD450 nm
same,MFI,[8],3980 MFI
same,MFI,[9],148 MFI
same,Kd,[10],0.529 nM
same,koff,[10],0.000405 s⁻¹
same,kon,[10],766000 M⁻¹ s⁻¹
same,MFI,[11],7190 MFI
same,MFI,[12],98 MFI
same,MFI,[13],103 MFI
same,MFI,[14],240 MFI
same,MFI,[15],89
same,MFI,[16],715 MFI
same,MFI,[17],307
same,MFI,[18],14800 MFI
same,MFI,[19],135
same,MFI,[20],448
same,MFI,[21],90
same,MFI,[22],2700 MFI
same,MFI,[23],21300 MFI
same,MFI,[24],8200 MFI
same,MFI,[25],85
same,MFI,[26],329 MFI
same,MFI,[27],7600 MFI
same,MFI,[28],21400 MFI
B3,MFI,[1],127 MFI
same,MFI,[2],1860
same,MFI,[3],149
same,MFI at 0.00128 nM,[4],121 MFI
same,MFI at 0.0064 nM,[4],120 MFI
same,MFI at 0.032 nM,[4],123 MFI
same,MFI at 0.16 nM,[4],139 MFI
same,MFI at 0.8 nM,[4],186 MFI
same,MFI at 4 nM,[4],333 MFI
same,MFI at 20 nM,[4],793 MFI
same,MFI at 100 nM,[4],1530 MFI
same,Emax of OD450 nm binding value,[5],0.24 OD450 nm
same,MFI,[6],711 MFI
same,Emax of OD450 nm binding value,[7],0.69 OD450 nm
same,MFI,[8],2940 MFI
same,MFI,[9],159 MFI
same,MFI,[11],6530 MFI
same,MFI,[12],103 MFI
same,MFI,[13],116 MFI
same,MFI,[14],221 MFI
same,MFI,[15],106
same,MFI,[16],521 MFI
same,MFI,[17],539
same,MFI,[18],12100 MFI
same,MFI,[19],245
same,MFI,[20],1020
same,MFI,[21],114
same,MFI,[22],2170 MFI
same,MFI,[23],18400 MFI
same,MFI,[24],7750 MFI
same,MFI,[25],102
same,MFI,[26],286 MFI
same,MFI,[27],8400 MFI
same,MFI,[28],18400 MFI
